Test results reported in PMC10618690.

Key:
[1] = target: histone H3 amino acids 16-35, H3K27me3 peptide (UniProt P68431); experiment: peptide or protein array
[2] = target: histone H3 amino acids 16-35, H3K27me2 peptide (UniProt P68431); experiment: peptide or protein array

Row | Substance | fold increase in binding over the corresponding unmodified peptide [1] | fold increase in binding over the corresponding unmodified peptide [2] | fold increase in binding over the unmodified peptide [1] | fold increase in binding over the unmodified peptide [2]
1 | GST-tagged PWWP1 domain of Apis mellifera DNMT3 (domain or fragment) | 3 fold | 5 fold | – | –
2 | GST-tagged PWWP2 domain of Apis mellifera DNMT3 (domain or fragment) | – | – | 3 fold | 3 fold
